Data reported in patent publication US20100129344A1, “MEDICAL USES AND THERAPIES BASED UPON THE ACTION OF AZUROCIDIN ON IGFBP-1” (priority 2005, published 2010).

Assays:
[1] = test system: primary human skeletal myotubes; test: 2-Deoxyglucose transport (glucose uptake); type: cell-based
Description: Primary human skeletal myotubes were incubated under serum-free conditions for 24 h. Glucose uptake was determined as described in the Methods. The results are the mean±SEM of four experiments using cells from different individuals each with 3 replicates; and are expressed as the percentage of uptake in the absence of IGF-II or IGFBP-1 for each. The effect of IGF-II is shown in the hatched bars. The effect of pIGFBP-1 on stimulation of glucose uptake by 10 ng/ml IGF-II was analyzed by 2-way ANOVA for each of the 20 ng/ml and 80 ng/ml concentrations; *, P<0.01, **, P<0.001, compared to no IGF-II; ††, P<0.001, compared to no IGFBP-1 or intact IGFBP-1.
Human skeletal muscle cells were isolated, with approval from the local Ethics Committee, from the muscle biopsies by trypsin digestion and were grown to confluent myoblasts and differentiated into myotubes as previously described in detail (Bouzakri et al, Diabetes, 52, 1319-1325, 2003). Muscle from 4 different subjects were individually minced before being incubated for 30 min in 5 ml of trypsin-EDTA (Invitrogen, Carlsbad, Calif.) at 37° C. under agitation. After being centrifuged (150 g), the pellet was rinsed several times in PBS. Cells were first preplated for 1 h to eliminate rapidly adherent fibroblasts. The remaining cells were then cultured in a growth medium composed of HAM F-10 supplemented with 20% fetal bovine serum (FBS; Invitrogen Stockholm, Sweden), and 1% antibiotics (Invitrogen Stockholm, Sweden). Cells were plated in 6 wells plates and cultured in growth medium at 37° C. until confluence. Differentiation into myotubes was induced by changing the medium to Dulbecco's modified Eagle's medium supplemented with 2% FBS, and 1% antibiotics.
2-Deoxyglucose transport: Glucose uptake was performed as previously described for primary human muscle cells (Bouzakri et al, Diabetologia, 47, 1314-1323, 2004). After 24-h serum starvation, myotubes were pre-incubated with or without IGF-II (10 ng/ml) and IGF-II+IGFBP-1 (intact or cleaved at 20 or 80 ng/ml) for 90 min. IGF-II and IGFBP-1 were mixed 30 min before the experiments. Cells were then washed four times with pre-warmed buffer (150 mmol/l NaCl, […] KCl, 1.2 mmol/l MgSO4, 1.2 mmol/l CaCL2, 2.5 mmol/l NaH2PO4, 10 mmol/l HEPES, pH 7.4) and glucose uptake was measured for 15 min using [3H]2-deoxyglucose (50 μmol/l, 14,800 Bq/well). Results were expressed as the percentage of glucose uptake in the absence of IGF-II or IGFBP-1.
(§1) Statistical analyses. The effect of IGF-II and IGFBP-1 in muscle cell culture was analyzed by two-way ANOVA. Where significant differences were observed, comparisons were made using the Tukey test. In the study using MCF-7 breast cancer cells the Wolcoxon Matched Pairs test was used. Statistical significance was set at P<0.05.

IGF-I [2] = target: T1, IGF-I (Homo sapiens, UniProt P05019); test: BIAcore analysis over IGF-I biosensor surface; type: binding; design: purchased Kabi Pharmacia (Sweden), donated; conditions: for kd (rate of dissociation, over 261-360 s) / ks (rate of association, over 21-120 s): IGF-I surface, proteolysis 0 h, mean ± SEM
Description: (§2) Recombinant pIGFBP-1 was analyzed across IGF-I (A, C) and IGF-II (B, D) biosensor surfaces. A concentration range of 50, 100, 200, 400 nM was analyzed at a flow rate of 10 μl/min. A,B: Mean sensorgrams for 400 nM IGFBP-1 (intact, n=3) and 200 nM IGFBP-1, intact (0 h, n=4) and after 2-h (n=5) and 4-h (n=3) incubations with partially purified azurocidin in a protease:substrate ratio of 1:3 500 for 2 h at 37 C. C,D: The rate of association (ks), the absolute value of the slope (dRU/dt versus RU) over the linear initial association phase (21-120 s), is shown for pIGFBP-1, intact (closed circles), and after incubation with partially purified azurocidin for 2 h at 37 C (open circles); and
(§3) Instrument and reagents (buffers, chemicals for activating and deactivated) were purchased from BIAcore (Uppsala, Sweden). IGF-I, IGF-II and des(1-3)IGF-I were immobilized on the sensor chip by amine coupling and deactivated with 0.1M ethanolamine. A reference flow cell was also prepared to correct for background and bulk refractive index contribution. After equilibration buffer to achieve a stable baseline, binding experiments was at 22 C in 2 separate experiments with the samples injected in random order. 40 μl of each sample was injected over the sensor surface at a rate of 10 μl/min (association period), followed by a 6 min wash with buffer (dissociation period). The sensor surface was regenerated with 20 μl of 100 mM HCl and washed for 6 min before the next sample. We used a 1:1 Langmuir binding interaction model for kinetic analysis using the BIAcore software and GraphPad Prism (GraphPad Software Inc, San Diego, Calif.).
Target sequence in this assay (P05019 49-118 limits assumed): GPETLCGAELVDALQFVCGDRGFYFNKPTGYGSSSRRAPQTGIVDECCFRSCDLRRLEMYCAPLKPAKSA

[3] = test system: MCF-7 human breast cancer cells; test: 3H-Thymidine incorporation; type: cell-based; conditions: without IGF-II; 4 experiments
Description: Cell studies. MCF-7 human breast cancer cells were maintained in MEM alpha ribonucleic acid-free medium supplemented with 10% foetal bovine serum, 50 Unit/ml penicillin sodium, 50 μg/ml streptomycin sulfate and 2 mM L-glutamine at 37C in 5% CO2 humidified environment.
3H-Thymidine incorporation: Experiments were carried out in 48-well plates, at 70% confluence. After a 20-h incubation in serum-free medium supplemented with 0.1% BSA, the experimental conditions were added for a further 24 h, with ^3H-thymidine (1 μCi/ml) added for the last 4 h. Cells were then washed with ice-cold 0.9% NaCl three times and incubated with ice-cold 5% TCA for 15 min at 22 C. The fixed nucleotides were solubilized in 0.1M NaOH at 22 C and subjected to liquid scintillation counting.
as §1

IGF-II = IGF-II (Homo sapiens, UniProt P01344); test: BIAcore analysis over IGF-II biosensor surface; type: binding; design: IGF-I, IGF-II and des(1-3)IGF-I were immobilized on the sensor chip by amine coupling; conditions: proteolysis 0 h, mean ± SEM
Description: as §2, §3

IGF-I [4] = target: T1, IGF-I; conditions: liver-secreted phosphoprotein, after dephosphorylation; cited from earlier work
Target sequence in this assay (P05019 49-118): as the sequence (P05019 49-118 limits assumed) above

Sequence of IGF-II (P01344 25-91 limits assumed): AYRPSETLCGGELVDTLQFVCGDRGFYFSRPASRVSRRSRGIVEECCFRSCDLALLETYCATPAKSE

kd (rate of dissociation, over 261-360 s) (IGF-I [2]; IGFBP-1 200 nM): 1.46 ± 0.19 ×10^−4 s^−1
ks (rate of association, over 21-120 s) (IGF-I [2]; IGFBP-1 200 nM): 4.29 ± 0.46 ×10^−3 s^−1
kd (rate of dissociation, over 261-360 s) (IGF-I [2]; IGFBP-1 400 nM): 1.45 ± 0.02 ×10^−4 s^−1
ks (rate of association, over 21-120 s) (IGF-I [2]; IGFBP-1 400 nM): 8.21 ± 0.14 ×10^−3 s^−1
predicted maximum response for interaction with IGF-I (IGF-I [2]; based on initial rate of association (21-120 s), proteolysed = 2-h time point): 908±79 RU
kd (rate of dissociation, over 261-360 s) (IGF-II; IGFBP-1 200 nM): 3.48 ± 0.40 ×10^−4 s^−1
ks (rate of association, over 21-120 s) (IGF-II; IGFBP-1 200 nM): 4.47 ± 0.78 ×10^−3 s^−1
kd (rate of dissociation, over 261-360 s) (IGF-II; IGFBP-1 400 nM): 3.37 ± 0.02 ×10^−4 s^−1
ks (rate of association, over 21-120 s) (IGF-II; IGFBP-1 400 nM): 8.30 ± 0.13 ×10^−3 s^−1
B1: intact pIGFBP-1: recombinant human phosphorylated IGFBP-1, intact (protein)
chain: APWQCAPCSAEKLALCPPVSASCSEVTRSAGCGCCPMCALPLGAACGVATARCARGLSCRALPGEQQPLHALTRGQGACVQESDASAPHAAEAGSPESPESTEITEEELLDNFHLMAPSEEDHSILWDAISTYDGSKALHVTNIKKWKEPCRIELYRVVESLAKAQETSGEEISKFYLPNCNKNGFYHSRQCETSMDGEAGLCWCVYPWNGKRIPGSPEIRGDPNCQIYFNVQN
effect on IGF-II-stimulated glucose uptake ([1]; IGF-II 10 ng/ml + IGFBP-1 20 or 80 ng/ml): inhibited in a dose-response manner
effect on glucose uptake alone ([1]; absence of exogenous IGF-II, 80 ng/ml): no effect
inhibition of 3H-thymidine incorporation by pIGFBP-1 alone [3]: 13-33%
reduction of affinity for IGF-I by dephosphorylation (IGF-I [4]): six fold
